From US20240066131A1 (Protagonist Therapeutics, Inc., priority 2020, published 2024) come the findings set out here.

To fix the notation:
T1: human ferroportin (SLC40A1) fused in frame with GFP, stably expressed in HEK293 cells (human, UniProt Q9NP59 1-571)
T1 sequence (looked up): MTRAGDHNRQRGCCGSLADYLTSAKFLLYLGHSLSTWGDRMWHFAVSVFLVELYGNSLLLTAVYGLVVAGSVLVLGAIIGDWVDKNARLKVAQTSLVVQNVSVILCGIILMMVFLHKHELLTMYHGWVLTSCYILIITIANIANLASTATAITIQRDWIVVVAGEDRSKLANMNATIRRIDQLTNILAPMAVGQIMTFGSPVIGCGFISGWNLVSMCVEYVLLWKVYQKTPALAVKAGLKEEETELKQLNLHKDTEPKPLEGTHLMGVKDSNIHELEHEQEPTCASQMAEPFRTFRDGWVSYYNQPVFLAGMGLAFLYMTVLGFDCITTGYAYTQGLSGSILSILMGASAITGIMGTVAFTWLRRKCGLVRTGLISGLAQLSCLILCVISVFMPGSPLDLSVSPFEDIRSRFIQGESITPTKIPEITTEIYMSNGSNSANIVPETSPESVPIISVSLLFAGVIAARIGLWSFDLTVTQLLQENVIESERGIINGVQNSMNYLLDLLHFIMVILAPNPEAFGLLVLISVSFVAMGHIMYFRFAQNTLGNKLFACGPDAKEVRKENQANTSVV

B1: Isovaleric Acid-[Tet2]-T-H-[Dpa]-P-I-I-[Lys(Ahx_Palm)]-[bhPhe]-NH2 (peptide)
peptide: Isovaleryl-[Tet2]TH[Dip]PIIK([Ahx-Palmitoyl])[β3hF]-NH2
SMILES: CCCCCCCCCCCCCCCC(=O)NCCCCCC(=O)NCCCC[C@H](NC(=O)[C@@H](NC(=O)[C@@H](NC(=O)[C@@H]1CCCN1C(=O)[C@@H](NC(=O)[C@H](Cc1c[nH]cn1)NC(=O)[C@@H](NC(=O)[C@H](CCc1nn[nH]n1)NC(=O)CC(C)C)[C@@H](C)O)C(c1ccccc1)c1ccccc1)[C@@H](C)CC)[C@@H](C)CC)C(=O)N[C@H](CC(N)=O)Cc1ccccc1
B2: Isovaleric Acid-E-T-H-[Dpa]-P-[t-BuGly]-I-[Lys(Ahx_Palm)]-[bhPhe]-NH2 (peptide)
peptide: Isovaleryl-ETH[Dip]P[Tle]IK([Ahx-Palmitoyl])[β3hF]-NH2
SMILES: CCCCCCCCCCCCCCCC(=O)NCCCCCC(=O)NCCCC[C@H](NC(=O)[C@@H](NC(=O)[C@@H](NC(=O)[C@@H]1CCCN1C(=O)[C@@H](NC(=O)[C@H](Cc1c[nH]cn1)NC(=O)[C@@H](NC(=O)[C@H](CCC(=O)O)NC(=O)CC(C)C)[C@@H](C)O)C(c1ccccc1)c1ccccc1)C(C)(C)C)[C@@H](C)CC)C(=O)N[C@H](CC(N)=O)Cc1ccccc1
B3: Isovaleric Acid-[Tet2]-T-[His_1Me]-[Dpa]-P-I-I-[Lys(Ahx_Palm)]-[bhPhe]-NH2 (peptide)
peptide: Isovaleryl-[Tet2]T[His(τ-Me)][Dip]PIIK([Ahx-Palmitoyl])[β3hF]-NH2
SMILES: CCCCCCCCCCCCCCCC(=O)NCCCCCC(=O)NCCCC[C@H](NC(=O)[C@@H](NC(=O)[C@@H](NC(=O)[C@@H]1CCCN1C(=O)[C@@H](NC(=O)[C@H](Cc1cn(C)cn1)NC(=O)[C@@H](NC(=O)[C@H](CCc1nn[nH]n1)NC(=O)CC(C)C)[C@@H](C)O)C(c1ccccc1)c1ccccc1)[C@@H](C)CC)[C@@H](C)CC)C(=O)N[C@H](CC(N)=O)Cc1ccccc1
B4: Isovaleric Acid-E-T-H-[Dpa]-P-A-I-[Lys(Ahx_Palm)]-[bhPhe]-NH2 (peptide)
peptide: Isovaleryl-ETH[Dip]PAIK([Ahx-Palmitoyl])[β3hF]-NH2
SMILES: CCCCCCCCCCCCCCCC(=O)NCCCCCC(=O)NCCCC[C@H](NC(=O)[C@@H](NC(=O)[C@H](C)NC(=O)[C@@H]1CCCN1C(=O)[C@@H](NC(=O)[C@H](Cc1c[nH]cn1)NC(=O)[C@@H](NC(=O)[C@H](CCC(=O)O)NC(=O)CC(C)C)[C@@H](C)O)C(c1ccccc1)c1ccccc1)[C@@H](C)CC)C(=O)N[C@H](CC(N)=O)Cc1ccccc1
B5: Isovaleric Acid-[(D)Arg]-T-H-[Dpa]-P-A-I-[Lys(1PEG2_1PEG2_Ahx_C18_Diacid)]-[bhPhe]-[(D)Lys]-NH2 (peptide)
peptide: Isovaleryl-[dR]TH[Dip]PAIK([AEEA-AEEA-Ahx-C18 diacid])[β3hF][dK]-NH2
SMILES: CC[C@H](C)[C@H](NC(=O)[C@H](C)NC(=O)[C@@H]1CCCN1C(=O)[C@@H](NC(=O)[C@H](Cc1c[nH]cn1)NC(=O)[C@@H](NC(=O)[C@@H](CCCNC(=N)N)NC(=O)CC(C)C)[C@@H](C)O)C(c1ccccc1)c1ccccc1)C(=O)N[C@@H](CCCCNC(=O)COCCOCCNC(=O)COCCOCCNC(=O)CCCCCNC(=O)CCCCCCCCCCCCCCCCC(=O)O)C(=O)N[C@H](CC(=O)N[C@H](CCCCN)C(N)=O)Cc1ccccc1
B6: Isovaleric Acid-E-T-H-[Dpa]-[ButanoicP]-[bhPhe]-[Lys(Ahx_Palm)]-NH2 (peptide)
peptide: Isovaleryl-ETH[Dip][ButanoicP][β3hF]K([Ahx-Palmitoyl])-NH2
SMILES: CCCCCCCCCCCCCCCC(=O)NCCCCCC(=O)NCCCC[C@H](NC(=O)C[C@H](Cc1ccccc1)NC(=O)CCC[C@@H]1CCCN1C(=O)[C@@H](NC(=O)[C@H](Cc1c[nH]cn1)NC(=O)[C@@H](NC(=O)[C@H](CCC(=O)O)NC(=O)CC(C)C)[C@@H](C)O)C(c1ccccc1)c1ccccc1)C(N)=O
B7: Isovaleric Acid-E-T-H-[Dpa]-P-A-[Lys(Ahx_Palm)]-NH2 (peptide)
peptide: Isovaleryl-ETH[Dip]PAK([Ahx-Palmitoyl])-NH2
SMILES: CCCCCCCCCCCCCCCC(=O)NCCCCCC(=O)NCCCC[C@H](NC(=O)[C@H](C)NC(=O)[C@@H]1CCCN1C(=O)[C@@H](NC(=O)[C@H](Cc1c[nH]cn1)NC(=O)[C@@H](NC(=O)[C@H](CCC(=O)O)NC(=O)CC(C)C)[C@@H](C)O)C(c1ccccc1)c1ccccc1)C(N)=O
B8: Isovaleric Acid-R-T-H-[Dpa]-P-A-I-[Lys(1PEG2_1PEG2_Ahx_C18_Diacid)]-[bhPhe]-[(D)Lys]-NH2 (peptide)
peptide: Isovaleryl-RTH[Dip]PAIK([AEEA-AEEA-Ahx-C18 diacid])[β3hF][dK]-NH2
SMILES: CC[C@H](C)[C@H](NC(=O)[C@H](C)NC(=O)[C@@H]1CCCN1C(=O)[C@@H](NC(=O)[C@H](Cc1c[nH]cn1)NC(=O)[C@@H](NC(=O)[C@H](CCCNC(=N)N)NC(=O)CC(C)C)[C@@H](C)O)C(c1ccccc1)c1ccccc1)C(=O)N[C@@H](CCCCNC(=O)COCCOCCNC(=O)COCCOCCNC(=O)CCCCCNC(=O)CCCCCCCCCCCCCCCCC(=O)O)C(=O)N[C@H](CC(=O)N[C@H](CCCCN)C(N)=O)Cc1ccccc1
B9: Isovaleric Acid-[Tet1]-T-H-[Dpa]-P-I-I-[Lys(Ahx_Palm)]-[bhPhe]-NH2 (peptide)
peptide: Isovaleryl-[Ala(1H-tetrazol-5-yl)]TH[Dip]PIIK([Ahx-Palmitoyl])[β3hF]-NH2
SMILES: CCCCCCCCCCCCCCCC(=O)NCCCCCC(=O)NCCCC[C@H](NC(=O)[C@@H](NC(=O)[C@@H](NC(=O)[C@@H]1CCCN1C(=O)[C@@H](NC(=O)[C@H](Cc1c[nH]cn1)NC(=O)[C@@H](NC(=O)[C@H](Cc1nnn[nH]1)NC(=O)CC(C)C)[C@@H](C)O)C(c1ccccc1)c1ccccc1)[C@@H](C)CC)[C@@H](C)CC)C(=O)N[C@H](CC(N)=O)Cc1ccccc1
B10: Isovaleric Acid-E-T-H-[Dpa]-P-V-I-[Lys(Ahx_Palm)]-[bhPhe]-NH2 (peptide)
peptide: Isovaleryl-ETH[Dip]PVIK([Ahx-Palmitoyl])[β3hF]-NH2
SMILES: CCCCCCCCCCCCCCCC(=O)NCCCCCC(=O)NCCCC[C@H](NC(=O)[C@@H](NC(=O)[C@@H](NC(=O)[C@@H]1CCCN1C(=O)[C@@H](NC(=O)[C@H](Cc1c[nH]cn1)NC(=O)[C@@H](NC(=O)[C@H](CCC(=O)O)NC(=O)CC(C)C)[C@@H](C)O)C(c1ccccc1)c1ccccc1)C(C)C)[C@@H](C)CC)C(=O)N[C@H](CC(N)=O)Cc1ccccc1
B11: Isovaleric Acid-L-T-H-[Dpa]-P-A-I-[Lys(Ahx_Palm)]-[(Me)Phe]-NH2 (peptide)
peptide: Isovaleryl-LTH[Dip]PAIK([Ahx-Palmitoyl])[NMeF]-NH2
SMILES: CCCCCCCCCCCCCCCC(=O)NCCCCCC(=O)NCCCC[C@H](NC(=O)[C@@H](NC(=O)[C@H](C)NC(=O)[C@@H]1CCCN1C(=O)[C@@H](NC(=O)[C@H](Cc1c[nH]cn1)NC(=O)[C@@H](NC(=O)[C@H](CC(C)C)NC(=O)CC(C)C)[C@@H](C)O)C(c1ccccc1)c1ccccc1)[C@@H](C)CC)C(=O)N(C)[C@@H](Cc1ccccc1)C(N)=O
B12: Isovaleric Acid-E-T-H-[Dpa]-P-[hLeu]-I-[Lys(Ahx_Palm)]-[bhPhe]-NH2 (peptide)
peptide: Isovaleryl-ETH[Dip]P[hLeu]IK([Ahx-Palmitoyl])[β3hF]-NH2
SMILES: CCCCCCCCCCCCCCCC(=O)NCCCCCC(=O)NCCCC[C@H](NC(=O)[C@@H](NC(=O)[C@H](CCC(C)C)NC(=O)[C@@H]1CCCN1C(=O)[C@@H](NC(=O)[C@H](Cc1c[nH]cn1)NC(=O)[C@@H](NC(=O)[C@H](CCC(=O)O)NC(=O)CC(C)C)[C@@H](C)O)C(c1ccccc1)c1ccccc1)[C@@H](C)CC)C(=O)N[C@H](CC(N)=O)Cc1ccccc1

Starred links: 1 amine or outer side, 2 acyl side, 3 side chain; linkers in the order of their positions; H or OH if unused. Non-standard residues stand in square brackets, D forms with d. Groups on a side chain read outwards from the residue. Primed or numbered codes have the meaning given here. *: point of attachment. Tet2 = (S)-2-amino-4-(1H-tetrazol-5-yl)butanoic acid, O=C([C@H](CCc1nn[nH]n1)N[*:1])[*:2]; ButanoicP = (R)-4-(pyrrolidin-2-yl)butanoic acid, O=C(CCC[C@@H]1CCCN1[*:1])[*:2]; Ala(1H-tetrazol-5-yl) = N[C@@H](Cc1nnn[nH]1)C(=O)O; C18 diacid = O=C(O)CCCCCCCCCCCCCCCCC(=O)*; Dip = N[C@H](C(=O)O)C(c1ccccc1)c1ccccc1; His(τ-Me) = Cn1cnc(C[C@H](N)C(=O)O)c1; Palmitoyl = CCCCCCCCCCCCCCCC(=O)*; NMeF = CN[C@@H](Cc1ccccc1)C(=O)O; β3hF = N[C@H](CC(=O)O)Cc1ccccc1; (n-hexyl)Gly = n-hexyl glycine; Tle = CC(C)(C)[C@H](N)C(=O)O; hLeu = CC(C)CC[C@H](N)C(=O)O; Isovaleryl = CC(C)CC(=O)*; hIle′ = not defined here; AEEA = NCCOCCOCC(=O)O; Ahx = NCCCCCC(=O)O

This test deals with T1, human ferroportin (SLC40A1) fused in …. The test is described as follows: cell-based or functional assay.
In the case of Isovaleryl-ETH[Dip]P[tBuAlanine]IK([Ahx-Palmitoyl])[β3hF]-NH2 [Isovaleric Acid-E-T-H-[Dpa]-P-[t-BuAlanine]-I-[Lys(Ahx_Palm)]-[bhPhe]-NH2], the “FPN EC50” value stood at 34.2 nM. The value for B1 was 376 nM; that for B2 was 40.3 nM; that for B3 was 101 nM. In the case of Isovaleryl-LTH[Dip]PAIK([AEEA-AEEA-Ahx-C18 diacid])[β3hF][dK]-NH2 [Isovaleric Acid-L-T-H-[Dpa]-P-A-I-[Lys(1PEG2_1PEG2_Ahx_C18_Diacid)]-[bhPhe]-[(D)Lys]-NH2], the “FPN EC50” value worked out at 65.7 nM. The value for Isovaleryl-ET[His(τ-Me)][Dip]PIIK([Ahx-Palmitoyl])[β3hF]-NH2 [Isovaleric Acid-E-T-[His_1Me]-[Dpa]-P-I-I-[Lys(Ahx_Palm)]-[bhPhe]-NH2] was 59.7 nM; that for B4 was 31.9 nM.

Turning to Isovaleryl-ETH[Dip]PIIK([Ahx-Palmitoyl])[β3hF]-NH2 [Isovaleric Acid-E-T-H-[Dpa]-P-I-I-[Lys(Ahx_Palm)]-[bhPhe]-NH2], the “FPN EC50” value amounted to 232 nM. The value for B5 was 732 nM. Next, B6: 71.2 nM; Isovaleryl-ETH[Dip]P[DiethylGly]IK([Ahx-Palmitoyl])[β3hF]-NH2 [Isovaleric Acid-E-T-H-[Dpa]-P-[DiethylGly]-I-[Lys(Ahx_Palm)]-[bhPhe]-NH2]: 69.7 nM; B7: 193 nM. Turning to B8, the “FPN EC50” value was determined as 48.5 nM.

As for Isovaleryl-[Ala(1H-tetrazol-5-yl)]T[His(τ-Me)][Dip]PIIK([Ahx-Palmitoyl])[β3hF]-NH2 [Isovaleric Acid-[Tet1]-T-[His_1Me]-[Dpa]-P-I-I-[Lys(Ahx_Palm)]-[bhPhe]-NH2], the “FPN EC50” value was 33.4 nM.

In the case of Isovaleryl-ETH[Dip]PLIK([Ahx-Palmitoyl])[NMeF]-NH2 [Isovaleric Acid-E-T-H-[Dpa]-P-L-I-[Lys(Ahx_Palm)]-[(Me)Phe]-NH2], the “FPN EC50” value stood at 27.2 nM. Consider Isovaleryl-ETH[Dip]P[(n-hexyl)Gly]IK([Ahx-Palmitoyl])[β3hF]-NH2 [Isovaleric Acid-E-T-H-[Dpa]-P-[(n-hexyl)Gly]-I-[Lys(Ahx_Palm)]-[bhPhe]-NH2], for which the “FPN EC50” value turned out to be 427 nM. On to Isovaleryl-ETH[Dip]P[hIle′]IK([Ahx-Palmitoyl])[β3hF]-NH2 [Isovaleric Acid-E-T-H-[Dpa]-P-[hIle]-I-[Lys(Ahx_Palm)]-[bhPhe]-NH2], for which the “FPN EC50” value was determined as 228 nM. For B9, the “FPN EC50” value came out at 86.8 nM. Next, Isovaleryl-ETH[Dip]PLIK([Ahx-Palmitoyl])[β3hF]-NH2 [Isovaleric Acid-E-T-H-[Dpa]-P-L-I-[Lys(Ahx_Palm)]-[bhPhe]-NH2]: 372 nM; B10: 199 nM; B11: 1750 nM. The value for B12 was 150 nM.
